B1: HisMBP-SMG7 (natural protein, Arabidopsis thaliana, UniProt A9QM73 1-1059, looked up)
chain: MMTLQMDKTTASSSWERAKSIYDEIAELANKRQKAGNPPDPNLLQLLREKYEAIILESHTFSEQHNIEIPLWQLHYKRIEYFRLHINRVLASSTSTAAQNVKGPSKAEQIAQLKLQFRTFLSEATGFYHDMILKIRSKYGLPLGSFSEDQQSQNLSDKDGKELAEVQKALKSCHRCLIYLGDLARYKGMYAEGDSRSRQYASASSYYLQAASLWPASGNPHHQLAIVASYSRDEFVTTYRYFRSLAVEYPFPTARDNLIVAFDKNRQSYEKLFVPSKDSSKRLTGKGRGKGADISLKDATLVAGPEKDKVTIANEMLKAFSIRFVHLNGILFTRTSLETFFDVLASTSSSLREVISLGSAKELTLGIDTSDSALFIVRVVTMLIFSVHNSKKETEGQSYAEIVQRVEPARNSLTASFELLGLVIEKCVQLGDPSSSYFLPGVLVFVEWLACCPDIALGSDPDDRQTAVRNSFWNQFVVFFNQVLSLGPTFIDDVEDETCFSNMSLYDERETENRLALWEDYELRGFLPLLPAQTILNFSRKHSFGTEGPKEKKARIKRIFAAGKALTSVIKVDQNHVYFDSKKKKFLVGVKPADDFLDSHSSPPKACNALQDNQVMIDHNSPIMQLDQQIYMGEEDDDDEVIVFKPLVTEKRKEASDQIYVPSGGFRKSDQVTTMGDFKALSGSDVAFHENQILQARGNASIQVPASVGANLLGPLQPSTQSQAMHMQQVQTQVQVPASVGANLLGLLLTSTQSQAMHMQQVQTQAVNPQPAQSLAASRLQPIQSQVAQPLPSRVVHFQQTQAQVSHVSPAHSQSTSFGGGSKWSPEEAASLASSLSGFAQLGNGHVMRNEMQGNHGVSYYPAHSLPVHQSYNGNGMGGMPYSQSRTPEAVFPPKIDPVLSSGVVADGLGVQSSLAKKNPISRAFRHLGPPPGFNSVPAKLQKEPAPGSELSGNNHLPVDDYSWLDGYQAQSSRGVGLNSSLNYATSGKPEHLGSTGNGLNGPANFPFPGKQVPTSQVQADFPYFQNPQKDNFVDKNHQSTQLPEQYQGQSTWSSRHFV
notes: SMG7, Arabidopsis thaliana, At5g19400; open reading frame amplified from Arabidopsis seedling (Col-8) cDNA; residues 1-1059 by the limits of its two halves; also called AtSMG7; HisMBP-tagged SMG7; source: Escherichia coli Rosetta-gami 2 (DE3), purified (Dextrin-Sepharose)
B2: GST-PSIG1^1-606 (domain or fragment)
chain: not shown
notes: PSIG1, Arabidopsis thaliana, At5g42950, residues 1-606, with the GYF domain and without its own PPGF motif; Vector pGEX4T-3; source: Escherichia coli Rosetta-gami 2 (DE3), purified (Glutathione-Sepharose)
B3: HisMBP-SMG7-C (domain or fragment, Arabidopsis thaliana, UniProt A9QM73 549-1059, looked up)
chain: PKEKKARIKRIFAAGKALTSVIKVDQNHVYFDSKKKKFLVGVKPADDFLDSHSSPPKACNALQDNQVMIDHNSPIMQLDQQIYMGEEDDDDEVIVFKPLVTEKRKEASDQIYVPSGGFRKSDQVTTMGDFKALSGSDVAFHENQILQARGNASIQVPASVGANLLGPLQPSTQSQAMHMQQVQTQVQVPASVGANLLGLLLTSTQSQAMHMQQVQTQAVNPQPAQSLAASRLQPIQSQVAQPLPSRVVHFQQTQAQVSHVSPAHSQSTSFGGGSKWSPEEAASLASSLSGFAQLGNGHVMRNEMQGNHGVSYYPAHSLPVHQSYNGNGMGGMPYSQSRTPEAVFPPKIDPVLSSGVVADGLGVQSSLAKKNPISRAFRHLGPPPGFNSVPAKLQKEPAPGSELSGNNHLPVDDYSWLDGYQAQSSRGVGLNSSLNYATSGKPEHLGSTGNGLNGPANFPFPGKQVPTSQVQADFPYFQNPQKDNFVDKNHQSTQLPEQYQGQSTWSSRHFV
notes: also called AtSMG7-C (549-1059); C-terminal half of SMG7; source: Escherichia coli Rosetta-gami 2 (DE3), purified (Dextrin-Sepharose)

Tests used:
[1] = target: T1, GST-PSIG1 (PLANT SMY2-TYPE ILE-GYF DOMAIN-CONTAINING PROTEIN 1, full length) (Arabidopsis thaliana, UniProt Q9FMM3 1-1714); test: pull-down; GST-PSIG1 proteins and HisMBP-SMG7 proteins mixed in 50 mM Tris-HCl pH 7.5, 150 mM NaCl, 1 mM DTT, 0.1% Triton X-100; Glutathione-Sepharose beads, 2 h at 4°C; washed three times with 300 mM NaCl buffer; detected by anti-His or anti-GST immunoblot or CBB; conditions: both partners purified
T1 construct: PSIG1 (EXA1/MUSE11), Arabidopsis thaliana, At5g42950; whole ORF cloned into pGEX4T-3; the text calls it full-length PSIG1; Vector pGEX4T-3, cloned between SalI and NotI sites; also called GST-tagged PSIG1; EXA1; source: Escherichia coli Rosetta-gami 2 (DE3), purified (Glutathione-Sepharose)
T1 sequence (Q9FMM3 whole entry, the tested form may be a part): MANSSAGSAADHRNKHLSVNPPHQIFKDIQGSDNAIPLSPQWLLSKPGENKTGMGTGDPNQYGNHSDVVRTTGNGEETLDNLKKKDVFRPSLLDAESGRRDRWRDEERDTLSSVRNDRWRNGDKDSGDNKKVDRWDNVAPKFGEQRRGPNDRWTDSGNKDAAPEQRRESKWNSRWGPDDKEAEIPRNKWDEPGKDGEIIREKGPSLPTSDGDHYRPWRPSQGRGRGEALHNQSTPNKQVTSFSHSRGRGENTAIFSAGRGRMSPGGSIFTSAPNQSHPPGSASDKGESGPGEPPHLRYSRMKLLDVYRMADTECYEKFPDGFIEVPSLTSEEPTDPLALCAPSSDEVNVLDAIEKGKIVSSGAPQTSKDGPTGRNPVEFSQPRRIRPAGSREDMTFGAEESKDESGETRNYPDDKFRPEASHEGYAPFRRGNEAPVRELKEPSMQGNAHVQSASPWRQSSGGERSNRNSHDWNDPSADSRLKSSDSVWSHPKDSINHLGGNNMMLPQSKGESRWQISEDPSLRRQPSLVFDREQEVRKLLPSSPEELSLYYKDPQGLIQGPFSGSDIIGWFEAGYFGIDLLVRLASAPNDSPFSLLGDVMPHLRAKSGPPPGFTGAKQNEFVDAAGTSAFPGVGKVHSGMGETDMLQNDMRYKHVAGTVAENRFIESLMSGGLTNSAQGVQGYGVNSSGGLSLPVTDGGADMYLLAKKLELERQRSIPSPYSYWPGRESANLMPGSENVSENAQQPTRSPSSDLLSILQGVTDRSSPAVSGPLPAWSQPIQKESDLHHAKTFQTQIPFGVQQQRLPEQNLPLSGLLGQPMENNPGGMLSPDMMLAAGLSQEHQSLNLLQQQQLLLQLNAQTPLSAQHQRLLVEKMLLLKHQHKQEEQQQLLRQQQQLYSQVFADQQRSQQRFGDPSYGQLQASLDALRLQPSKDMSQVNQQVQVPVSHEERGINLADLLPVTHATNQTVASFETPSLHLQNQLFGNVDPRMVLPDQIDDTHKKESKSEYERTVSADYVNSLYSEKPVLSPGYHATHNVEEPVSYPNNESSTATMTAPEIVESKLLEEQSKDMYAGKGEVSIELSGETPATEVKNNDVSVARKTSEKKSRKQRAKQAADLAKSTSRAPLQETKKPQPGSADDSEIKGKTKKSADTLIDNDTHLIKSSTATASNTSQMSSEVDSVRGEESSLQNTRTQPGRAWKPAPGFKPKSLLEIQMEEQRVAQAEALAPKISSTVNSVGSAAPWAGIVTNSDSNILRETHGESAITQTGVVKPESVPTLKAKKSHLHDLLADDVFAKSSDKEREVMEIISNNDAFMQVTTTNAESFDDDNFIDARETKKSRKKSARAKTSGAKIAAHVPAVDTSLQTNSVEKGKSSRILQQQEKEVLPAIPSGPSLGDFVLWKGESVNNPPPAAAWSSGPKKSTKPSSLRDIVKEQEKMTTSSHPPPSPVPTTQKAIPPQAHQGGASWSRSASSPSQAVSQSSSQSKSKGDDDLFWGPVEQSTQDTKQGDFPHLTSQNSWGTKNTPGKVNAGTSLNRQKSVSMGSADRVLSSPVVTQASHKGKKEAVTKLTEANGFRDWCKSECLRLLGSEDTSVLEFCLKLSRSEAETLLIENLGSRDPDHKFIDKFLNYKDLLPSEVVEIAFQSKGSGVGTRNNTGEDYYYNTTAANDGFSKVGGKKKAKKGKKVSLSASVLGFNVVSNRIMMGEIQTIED

HisMBP-SMG7 = target: B1; test: as above; conditions: both partners purified

Row | Binder | binding result [1] | binding result (HisMBP-SMG7)
1 | B1 | binds | 
2 | B2 |  | binds
3 | B3 | binds | 
